This passage reports Kd results from paper PMC6629125, “Lysyl oxidase–like 2 (LOXL2)–mediated cross-linking of tropoelastin” (The FASEB Journal, 2019).

For this assay, the target named is T1, full-length lysyl oxidase-like 2 (FL-LOXL2), recombinant human (human, UniProt Q9Y4K0 26-774).
T1 construct: Lysyl oxidase-like 2 (LOXL2), human, full-length cDNA in pcDNA3.1-myc-His, amplified from the start ATG; the protein was secreted by CHO cells; also called LOX-like 2; source: DHFR-deficient CHO cells, transfected, secreted into Opti-MEM; purified (HisTrap, gel filtration)
T1 sequence (looked up): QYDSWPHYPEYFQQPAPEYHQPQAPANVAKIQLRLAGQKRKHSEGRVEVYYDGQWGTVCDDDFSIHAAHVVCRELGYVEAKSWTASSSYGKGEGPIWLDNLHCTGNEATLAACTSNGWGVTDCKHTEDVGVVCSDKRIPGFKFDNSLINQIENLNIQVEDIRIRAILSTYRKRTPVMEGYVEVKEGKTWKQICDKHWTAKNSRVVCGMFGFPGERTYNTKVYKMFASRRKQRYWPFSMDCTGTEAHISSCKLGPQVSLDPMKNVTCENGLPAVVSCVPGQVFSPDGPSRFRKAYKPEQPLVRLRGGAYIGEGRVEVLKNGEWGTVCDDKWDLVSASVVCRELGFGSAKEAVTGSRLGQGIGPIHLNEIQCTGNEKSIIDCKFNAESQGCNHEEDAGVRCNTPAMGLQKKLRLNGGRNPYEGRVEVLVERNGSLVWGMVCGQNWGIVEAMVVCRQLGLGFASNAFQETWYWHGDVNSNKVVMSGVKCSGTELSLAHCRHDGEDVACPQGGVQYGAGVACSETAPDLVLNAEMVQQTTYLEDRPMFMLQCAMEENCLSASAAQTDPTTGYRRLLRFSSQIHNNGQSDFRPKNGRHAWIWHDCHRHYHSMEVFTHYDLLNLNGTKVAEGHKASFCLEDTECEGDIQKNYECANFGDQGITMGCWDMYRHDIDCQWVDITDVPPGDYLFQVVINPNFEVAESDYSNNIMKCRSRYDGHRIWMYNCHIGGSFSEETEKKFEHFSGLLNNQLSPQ
Briefly: SPR; ProteOn XPR36; LOXL2 amine-coupled on a GLC chip; TE as analyte, serial 1:1 dilution from 830 nM; 10 mM Na-HEPES, 150 mM NaCl, 2 mM CaCl2, 0.05% Tween 20, pH 7.4, 25°C; steady-state analysis. To be noted: both partners purified.

B1: human tropoelastin, isoform 2 (natural protein, UniProt P15502-2 27-724, looked up)
chain: GGVPGAIPGGVPGGVFYPGAGLGALGGGALGPGGKPLKPVPGGLAGAGLGAGLGAFPAVTFPGALVPGGVADAAAAYKAAKAGAGLGGVPGVGGLGVSAGAVVPQPGAGVKPGKVPGVGLPGVYPGGVLPGARFPGVGVLPGVPTGAGVKPKAPGVGGAFAGIPGVGPFGGPQPGVPLGYPIKAPKLPGGYGLPYTTGKLPYGYGPGGVAGAAGKAGYPTGTGVGPQAAAAAAAKAAAKFGAGAAGVLPGVGGAGVPGVPGAIPGIGGIAGVGTPAAAAAAAAAAKAAKYGAAAGLVPGGPGFGPGVVGVPGAGVPGVGVPGAGIPVVPGAGIPGAAVPGVVSPEAAAKAAAKAAKYGARPGVGVGGIPTYGVGAGGFPGFGVGVGGIPGVAGVPGVGGVPGVGGVPGVGISPEAQAAAAAKAAKYGVGTPAAAAAKAAAKAAQFGLVPGVGVAPGVGVAPGVGVAPGVGLAPGVGVAPGVGVAPGVGVAPGIGPGGVAAAAKSAAKVAAKAQLRAAAGLGAGIPGLGVGVGVPGLGVGAGVPGLGVGAGVPGFGAVPGALAAAKAAKYGAAVPGVLGGLGALGGVGIPGGVVGAGPAAAAAAAKAAAKAAQFGLVGAAGLGGLGVGGLGVPGVGGLGGIPPAAAAKAAKYGAAGLGGVLGGAGQFPLGGVAARPGFGLSPIFPGGACLGKACGRKRK
notes: also called TE; source: E. coli, purified (acetone/buffer extraction, filtration, dialysis, freeze drying)
A word on the Kd: it is the equilibrium constant for the complex coming apart. For B1, the Kd stood at 146 nM.
